Laboratory results taken from PMC5737501.
Where two headings read alike, the source gives them in different places.

Legend:
Test in all cases: single-molecule TIRF colocalisation imaging
[1] = molecular target: H3K9me3 chromatin fiber, 12 × 601 array with 197 bp nucleosome repeat length (a197) (human) (UniProt P62805)
[2] = molecular target: H3K9me3 and H4KS16ac chromatin fiber, 12 × 601 array with 177 bp NRL (a177) (human) (UniProt P62805)
[3] = molecular target: H3K9me3 and H4KS16ac chromatin fiber, 12 × 601 array with 197 bp NRL (a197) (human) (UniProt P62805)
[4] = molecular target: H3K9me3 chromatin fiber, 12 × 601 array with 177 bp nucleosome repeat length (a177) (human) (UniProt P62805)
[5] = molecular target: H3K9me3 chromatin fiber, 12 × 601 array with 177 bp nucleosome repeat length (a177) (human) (UniProt P62805); remark: listed apart in the source

Chain of HP1α, labeled with Atto532 at its C-terminus (P45973 whole entry): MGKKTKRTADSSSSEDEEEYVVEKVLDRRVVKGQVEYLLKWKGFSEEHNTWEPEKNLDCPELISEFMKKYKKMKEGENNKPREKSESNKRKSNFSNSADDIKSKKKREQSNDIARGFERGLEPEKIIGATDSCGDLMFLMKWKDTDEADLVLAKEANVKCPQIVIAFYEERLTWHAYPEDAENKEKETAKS
Chain of Phosphorylated HP1α (pHP1α), Atto532-labeled, phosphorylated with casein kinase 2 (P45973 whole entry): as above
Chain of HP1γ, labeled with Atto532 at its C-terminus (Q13185 whole entry): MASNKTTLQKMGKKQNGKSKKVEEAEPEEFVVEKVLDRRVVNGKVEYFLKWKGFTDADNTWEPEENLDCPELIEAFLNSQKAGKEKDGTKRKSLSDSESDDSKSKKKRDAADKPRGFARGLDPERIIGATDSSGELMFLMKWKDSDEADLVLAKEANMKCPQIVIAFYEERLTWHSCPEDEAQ
Chain of HP1β, labeled with Atto532 at its C-terminus (P83916 whole entry): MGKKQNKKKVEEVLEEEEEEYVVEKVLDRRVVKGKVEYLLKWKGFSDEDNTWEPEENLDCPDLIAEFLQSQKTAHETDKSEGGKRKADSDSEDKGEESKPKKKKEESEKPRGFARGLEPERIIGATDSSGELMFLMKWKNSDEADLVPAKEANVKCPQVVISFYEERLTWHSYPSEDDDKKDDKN

| Substance | kon [1] [M⁻¹ s⁻¹] | tau off,1 (residence time, fast phase) [1] [s] | tau off,2 (residence time, slow phase) [1] [s] | kon [2] [M⁻¹ s⁻¹] | tau off,1 (residence time, fast phase) [2] [s] | tau off,2 (residence time, slow phase) [2] [s] | kon [3] [M⁻¹ s⁻¹] | tau off,1 (residence time, fast phase) [3] [s] | tau off,2 (residence time, slow phase) [3] [s] | kon [4] [M⁻¹ s⁻¹] | tau off,1 (residence time, fast phase) [4] [s] | tau off,2 (residence time, slow phase) [4] [s] | kon [5] [M⁻¹ s⁻¹] | tau off,1 (residence time, fast phase) [5] [s] | tau off,2 (residence time, slow phase) [5] [s] |
| --- | --- | --- | --- | --- | --- | --- | --- | --- | --- | --- | --- | --- | --- | --- | --- |
| HP1α, labeled with Atto532 at its C-terminus (from UniProt P45973 1-191) (natural protein) | 2.51e+06 | 0.24 | 2.49 | 2.76e+06 | 0.19 | 1.92 | 2.25e+06 | 0.16 | 2 | 1.1e+06 | 0.19 | 3.32 | 360000 | 0.14 | 2.97 |
| HP1β, labeled with Atto532 at its C-terminus (from UniProt P83916 1-185) (natural protein) |  |  |  |  |  |  |  |  |  | 670000 | 0.19 | 3.6 |  |  |  |
| Phosphorylated HP1α (pHP1α), Atto532-labeled, phosphorylated with casein kinase 2 (from UniProt P45973 1-191) (natural protein) |  |  |  |  |  |  |  |  |  | 1.73e+06 | 0.26 | 5.6 |  |  |  |
| HP1γ, labeled with Atto532 at its C-terminus (from UniProt Q13185 1-183) (natural protein) |  |  |  |  |  |  |  |  |  | 890000 | 0.17 | 2.64 |  |  |  |
